The source of these data is patent US20190284242A1 (University of Washington, published 2019).

In one experiment the target is T1, I32-06B.
T1 construct: also called trimer component of I32-06
Put plainly: negative stain electron microscopy class averages of the assembled nanostructure.

Another experiment deals with T2, I52-33B.
T2 construct: also called dimer component of I52-33
T2 chain: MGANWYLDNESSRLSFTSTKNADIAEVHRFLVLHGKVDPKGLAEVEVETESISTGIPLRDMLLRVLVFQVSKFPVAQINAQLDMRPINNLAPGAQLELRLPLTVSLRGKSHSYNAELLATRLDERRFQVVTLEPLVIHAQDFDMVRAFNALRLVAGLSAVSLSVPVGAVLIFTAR
Put plainly: size exclusion chromatography (Superose 6 10/300) of co-expressed, purified pair.

T1 sequence (chain, as listed by the source): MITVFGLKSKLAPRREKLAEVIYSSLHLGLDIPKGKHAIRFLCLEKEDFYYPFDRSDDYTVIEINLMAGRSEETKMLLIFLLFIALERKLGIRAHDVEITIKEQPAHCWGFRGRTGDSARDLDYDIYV

B1: I32-06A (designed binder)
chain: MTDYIRDGSAIKALSFAIILAEADLRHIPQDLQRLAVRVIHACGMVDVANDLAFSEGAGKAGRNALLAGAPILCDARMVAEGITRSRLPADNRVIYTLSDPSVPELAKKIGNTRSAAALDLWLPHIEGSIVAIGNAPTALFRLFELLDAGAPKPALIIGMPVGFVGAAESKDELAANSRGVPYVIVRGRRGGSAMTAAAVNALASERE
notes: also called dimer component of I32-06
For the molecule B1, the binding result with I32-06B was “binds”.

B2: I52-33A (designed binder)
chain: MAVKGLGEVDQKYDGSKLRIGILHARWNRKIILALVAGAVLRLLEFGVKAENIIIETVPGSFELPYGSKLFVEKQKRLGKPLDAIIPIGVLIKGSTMHFEYICDSTTHQLMKLNFELGIPVIFGVLTCLTDEQAEARAGLIEGKMHNHGEDWGAAAVEMATKFN
notes: also called pentamer component of I52-33
For B2, the binding result with I52-33B is on record as “binds”.
